According to article PMC4966879:
Where two headings read alike, the source gives them in different places.

Tests used:
Experiment in all cases: SAXS
[1] = target: HUα38α38 (Escherichia coli, UniProt P0ACF0 1-90, E38K;V42L)
[2] = target: HUαα G82E (Escherichia coli, UniProt P0ACF0 1-90, G82E)
[3] = target: T1, HUαβ (Escherichia coli, UniProt P0ACF0;P0ACF4 1-90;1-90)
[4] = target: HUαα V45E (Escherichia coli, UniProt P0ACF0 1-90, V45E)
[5] = target: T2, HUαα (Escherichia coli, UniProt P0ACF0 1-90)
[6] = target: HUαα P63E (Escherichia coli, UniProt P0ACF0 1-90, P63E)
[7] = target: T2, HUαα; remark: listed apart in the source
[8] = target: T1, HUαβ; remark: listed apart in the source

Measured: binding result

B1: 80-bp DNA (dsDNA)
DNA 1: AATGAGGTAACAACGAAAGCAGATGATAGCTGCTTATCAATTTGTTGCAAACAAGTAGCCGCGCCCAATGAGGTAACAAT
DNA 2: ATTGTTACCTCATTGGGCGCGGCTACTTGTTTGCAACAAATTGATAAGCAGCTATCATCTGCTTTCGTTGTTACCTCATT
binds: [1] | [2] | [3] | [4] | [5] | [6]

B2: 20-bp DNA (dsDNA)
DNA 1: GTTCAATTGTTGTTAACTTG
DNA 2: CAAGTTAACAACAATTGAAC
binds: [7] | [8]
